Experimental data as given in patent US20250042956A1 (University of California, published 2025).

Key:
AT5G51230.1 EMF2 = target: T1, AT5G51230.1 EMF2 (Arabidopsis thaliana, UniProt Q8L6Y4 1-631); assay: IP-MS rep 1
T1 construct: Endogenous protein found by mass spectrometry; also called EMBRYONIC FLOWER 2
T1 sequence (looked up): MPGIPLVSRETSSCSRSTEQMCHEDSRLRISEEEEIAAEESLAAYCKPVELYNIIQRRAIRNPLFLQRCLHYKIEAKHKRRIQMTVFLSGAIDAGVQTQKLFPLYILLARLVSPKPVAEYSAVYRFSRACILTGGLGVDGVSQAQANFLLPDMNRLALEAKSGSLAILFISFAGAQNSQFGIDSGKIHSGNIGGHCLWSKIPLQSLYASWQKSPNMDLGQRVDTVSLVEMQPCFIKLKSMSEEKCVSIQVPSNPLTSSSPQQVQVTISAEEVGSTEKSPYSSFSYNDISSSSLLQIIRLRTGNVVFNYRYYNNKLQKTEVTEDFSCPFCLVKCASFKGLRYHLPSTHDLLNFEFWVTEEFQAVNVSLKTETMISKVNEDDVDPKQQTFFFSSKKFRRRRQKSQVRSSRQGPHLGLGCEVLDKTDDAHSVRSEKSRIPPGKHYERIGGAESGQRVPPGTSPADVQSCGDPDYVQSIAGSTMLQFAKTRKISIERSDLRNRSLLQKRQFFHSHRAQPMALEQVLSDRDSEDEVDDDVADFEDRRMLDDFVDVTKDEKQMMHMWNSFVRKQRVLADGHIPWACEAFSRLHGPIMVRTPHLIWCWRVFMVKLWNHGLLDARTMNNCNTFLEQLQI
Procedure, shortened: (§1)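 Unopened floral buds (ten grams) from wild-type and FLAG-tagged transgenic Arabidopsis lines were ground in liquid nitrogen, homogenised in 25 mL IP buffer and passed through Miracloth. The lysates were mixed with 250 μL anti-FLAG M2 magnetic beads for 2 hours at 4° C, then washed and eluted in TBS containing 250 μg/mL 3×FLAG peptides. Peptide counts for co-purified proteins were obtained by mass spectrometry of the eluted proteins after trichloroacetic acid precipitation.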

AT3G20740.1 FIE [1] = target: T2, AT3G20740.1 FIE (Arabidopsis thaliana, UniProt Q9LT47 1-369); assay: IP-MS rep 1
T2 construct: Endogenous protein found by mass spectrometry; also called FERTILIZATION INDEPENDENT ENDOSPERM
T2 sequence (looked up): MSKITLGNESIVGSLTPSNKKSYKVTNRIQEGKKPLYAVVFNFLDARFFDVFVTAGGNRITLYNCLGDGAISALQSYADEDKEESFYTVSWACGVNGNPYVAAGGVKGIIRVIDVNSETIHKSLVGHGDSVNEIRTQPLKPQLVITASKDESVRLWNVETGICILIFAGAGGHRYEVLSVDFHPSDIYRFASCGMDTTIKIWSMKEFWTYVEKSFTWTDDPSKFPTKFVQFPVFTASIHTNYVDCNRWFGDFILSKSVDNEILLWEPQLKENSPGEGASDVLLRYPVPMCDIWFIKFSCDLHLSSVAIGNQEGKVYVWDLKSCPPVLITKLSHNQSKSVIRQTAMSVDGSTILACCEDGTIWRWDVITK
Procedure, shortened: as §1

AT2G23380.1 CLF [2] = target: T3, AT2G23380.1 CLF (Arabidopsis thaliana, UniProt P93831 1-902); assay: IP-MS rep 1
T3 construct: Endogenous protein found by mass spectrometry; also called CURLY LEAF
T3 sequence (looked up): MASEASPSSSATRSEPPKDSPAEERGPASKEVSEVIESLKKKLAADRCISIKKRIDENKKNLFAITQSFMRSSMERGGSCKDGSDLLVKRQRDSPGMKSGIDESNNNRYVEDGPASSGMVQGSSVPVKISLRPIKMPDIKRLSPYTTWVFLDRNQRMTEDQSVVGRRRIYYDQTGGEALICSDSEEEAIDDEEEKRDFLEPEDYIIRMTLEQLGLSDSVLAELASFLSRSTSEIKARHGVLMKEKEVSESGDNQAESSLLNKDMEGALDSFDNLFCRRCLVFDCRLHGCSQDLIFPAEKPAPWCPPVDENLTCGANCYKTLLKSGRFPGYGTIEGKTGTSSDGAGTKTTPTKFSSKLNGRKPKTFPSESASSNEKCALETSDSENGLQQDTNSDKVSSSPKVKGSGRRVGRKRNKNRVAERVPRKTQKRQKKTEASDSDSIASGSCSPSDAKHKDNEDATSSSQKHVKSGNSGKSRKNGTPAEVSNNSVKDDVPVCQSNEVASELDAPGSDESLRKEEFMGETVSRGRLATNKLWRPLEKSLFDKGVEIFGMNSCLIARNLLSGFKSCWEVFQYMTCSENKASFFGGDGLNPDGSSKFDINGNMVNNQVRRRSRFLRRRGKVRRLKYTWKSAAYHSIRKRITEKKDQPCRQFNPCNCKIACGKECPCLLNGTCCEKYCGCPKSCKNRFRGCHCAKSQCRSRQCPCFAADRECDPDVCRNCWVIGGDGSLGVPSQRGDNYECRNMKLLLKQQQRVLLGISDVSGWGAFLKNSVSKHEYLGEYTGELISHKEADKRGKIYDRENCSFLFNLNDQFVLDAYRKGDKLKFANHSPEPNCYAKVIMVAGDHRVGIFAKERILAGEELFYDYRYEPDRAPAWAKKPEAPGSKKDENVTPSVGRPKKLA
Procedure, shortened: as §1

AT1G49950.3 TRB1 = target: T4, AT1G49950.3 TRB1 (Arabidopsis thaliana, UniProt Q8VWK4 1-300, limits assumed); assay: IP-MS rep 1
T4 construct: Endogenous protein found by mass spectrometry
T4 sequence: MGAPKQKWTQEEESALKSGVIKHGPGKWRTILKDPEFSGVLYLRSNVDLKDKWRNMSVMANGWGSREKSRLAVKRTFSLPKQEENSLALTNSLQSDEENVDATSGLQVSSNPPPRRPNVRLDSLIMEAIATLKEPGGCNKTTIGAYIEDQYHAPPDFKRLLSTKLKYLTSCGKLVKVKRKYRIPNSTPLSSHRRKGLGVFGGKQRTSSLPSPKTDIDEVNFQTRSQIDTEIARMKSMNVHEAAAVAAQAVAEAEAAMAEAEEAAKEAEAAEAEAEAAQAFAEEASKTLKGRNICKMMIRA
Procedure, shortened: as §1

AT3G20740.1 FIE [3] = target: T2, AT3G20740.1 FIE; assay: IP-MS rep 2
Procedure, shortened: as §1

AT2G23380.1 CLF [4] = target: T3, AT2G23380.1 CLF; assay: IP-MS rep 2
Procedure, shortened: as §1

B1: TRBIP2 (bait of the TRBIP2 IP-MS) (other, not shown: small tags and cut ends)
chain: MATNACLESDSLLPPRKRLLAGFKNQNSRISNESPSPPFASSSSSTTTSNGSSASAVVHTHHLDHLLNDQTRSPEELAQASKATAALAVKVAKAARATANEKAIIASKAVAAAKNALELFASFPAAETVSCKEPRLIRAINNSPRVLTDCSGHRNKKQKTLTSTMNDGNDVAGVVDSDDGTRVNGKLLLCDNTLKEKTEEESSSLGKRRGRVKLPLSMCAYKDQENGITLEENNLSVSKSEGYNGGVAQVIERPSWKCQDLKSPECVKQNKVVRS
notes: tag and its position not described; also called TRBIP2-1; TRBIP2-2
IP-MS count (AT5G51230.1 EMF2): 0
IP-MS count (AT3G20740.1 FIE [1]): 1
IP-MS count (AT2G23380.1 CLF [2]): 0
IP-MS count (AT1G49950.3 TRB1): 26
IP-MS count (AT3G20740.1 FIE [3]): 0
IP-MS count (AT2G23380.1 CLF [4]): 0
